Measurements as given in patent EP4786492A1 (Simcere Zaiming Pharmaceutical Co., Ltd., dated 2026).

T1: human DLL1 protein (human, UniProt O00548 18-540, limits assumed)
T1 construct: bought protein; construct and tag not described; also called hDLL1
T1 sequence (looked up): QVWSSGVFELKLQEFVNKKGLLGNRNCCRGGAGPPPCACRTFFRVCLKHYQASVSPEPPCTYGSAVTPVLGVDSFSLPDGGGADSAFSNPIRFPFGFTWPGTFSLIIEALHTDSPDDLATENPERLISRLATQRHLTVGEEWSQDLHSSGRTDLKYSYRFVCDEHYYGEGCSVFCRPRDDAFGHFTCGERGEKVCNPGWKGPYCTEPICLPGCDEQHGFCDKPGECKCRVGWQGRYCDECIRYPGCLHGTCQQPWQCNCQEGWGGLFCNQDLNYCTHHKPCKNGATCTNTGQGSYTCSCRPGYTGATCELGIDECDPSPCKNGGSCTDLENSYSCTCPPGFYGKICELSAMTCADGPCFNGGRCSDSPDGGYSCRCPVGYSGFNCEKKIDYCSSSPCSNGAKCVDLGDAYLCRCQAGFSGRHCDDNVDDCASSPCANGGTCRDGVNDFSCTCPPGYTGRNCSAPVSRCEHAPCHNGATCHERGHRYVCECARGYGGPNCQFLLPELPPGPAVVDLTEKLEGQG

T2: human DLL3-his protein (human, UniProt Q9NYJ7 27-492)
T2 construct: also called human DLL3 protein; DLL3 antigen protein; not shown: His tag
T2 sequence: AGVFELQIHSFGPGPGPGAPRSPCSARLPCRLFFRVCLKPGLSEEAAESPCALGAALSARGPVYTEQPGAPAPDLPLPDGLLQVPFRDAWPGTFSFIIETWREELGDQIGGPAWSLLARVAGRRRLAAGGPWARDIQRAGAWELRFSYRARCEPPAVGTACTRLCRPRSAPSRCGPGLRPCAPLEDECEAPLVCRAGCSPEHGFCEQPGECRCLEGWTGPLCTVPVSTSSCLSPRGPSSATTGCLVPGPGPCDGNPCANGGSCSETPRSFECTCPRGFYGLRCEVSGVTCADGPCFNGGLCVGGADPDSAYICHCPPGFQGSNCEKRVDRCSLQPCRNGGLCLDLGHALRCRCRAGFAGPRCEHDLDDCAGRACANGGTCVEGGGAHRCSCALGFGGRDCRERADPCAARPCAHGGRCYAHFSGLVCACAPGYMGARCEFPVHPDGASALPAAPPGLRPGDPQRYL

T3: monkey DLL3 on CHO K1-cyno DLL3 cells (cynomolgus monkey)
T3 construct: also called monkey DLL3 recombinant cell line
T3 chain: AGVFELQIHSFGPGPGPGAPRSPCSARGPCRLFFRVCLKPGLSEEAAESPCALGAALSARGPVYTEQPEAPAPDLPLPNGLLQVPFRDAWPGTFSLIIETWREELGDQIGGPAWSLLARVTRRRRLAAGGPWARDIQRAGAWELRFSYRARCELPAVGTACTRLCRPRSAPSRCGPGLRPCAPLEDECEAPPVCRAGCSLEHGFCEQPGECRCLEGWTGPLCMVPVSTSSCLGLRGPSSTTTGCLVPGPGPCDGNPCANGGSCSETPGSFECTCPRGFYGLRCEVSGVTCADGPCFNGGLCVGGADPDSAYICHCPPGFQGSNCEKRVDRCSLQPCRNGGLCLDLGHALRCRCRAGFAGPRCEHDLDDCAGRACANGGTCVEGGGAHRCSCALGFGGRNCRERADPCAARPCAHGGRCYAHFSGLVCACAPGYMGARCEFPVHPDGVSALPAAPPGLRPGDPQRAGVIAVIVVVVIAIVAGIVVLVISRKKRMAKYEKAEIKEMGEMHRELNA


Legend:
[1] = target: T4, human DLL4 protein (human, UniProt Q9NR61 27-524, limits assumed); assay: ELISA, maximum over 0.1-100 nM
T4 construct: bought protein; construct and tag not described; also called hDLL4

[2] = target: T1, human DLL1 protein; assay: ELISA, maximum over 0.1-100 nM
[3] = target: T2, human DLL3-his protein; assay: ELISA
[4] = target: T3, monkey DLL3 on CHO K1-cyno DLL3 cells; assay: FACS, CHO K1-cyno DLL3 cells

T4 sequence (Q9NR61 27-524 limits assumed): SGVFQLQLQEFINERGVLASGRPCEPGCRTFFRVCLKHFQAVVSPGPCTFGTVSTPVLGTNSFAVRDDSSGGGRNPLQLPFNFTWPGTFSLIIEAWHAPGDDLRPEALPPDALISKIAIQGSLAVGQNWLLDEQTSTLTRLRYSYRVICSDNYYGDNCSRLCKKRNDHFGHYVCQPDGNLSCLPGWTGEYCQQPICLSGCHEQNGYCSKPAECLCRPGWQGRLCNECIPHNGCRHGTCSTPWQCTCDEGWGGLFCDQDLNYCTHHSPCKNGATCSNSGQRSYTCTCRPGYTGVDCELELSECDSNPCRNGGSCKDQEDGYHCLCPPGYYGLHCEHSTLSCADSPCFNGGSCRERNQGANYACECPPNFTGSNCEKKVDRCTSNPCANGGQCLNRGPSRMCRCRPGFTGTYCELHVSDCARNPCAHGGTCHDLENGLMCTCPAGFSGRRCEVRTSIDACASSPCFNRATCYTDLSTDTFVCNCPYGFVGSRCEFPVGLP

| Binder | Emax of OD450 nm binding value [1] | Emax of OD450 nm binding value [2] | binding result [3] | binding result [4] |
| --- | --- | --- | --- | --- |
| mab005 scFv-hFc (Fc fusion, human-murine chimeric scFv-hFc, VL-linker-VH-human IgG1 Fc; not shown: linker; Fc fragment of human IgG1) scFv (part 1 of 2): DIVLTQSPATLSVTPGDSVSLSCRASQSVSNDLHWYQQKSHESPRLLIKYASQSISGIPSRFSGSGSGTDFTLTINSVETEDFGMYFCQQSNNWPYTFGGGTKLEMK scFv (part 2 of 2): QVQLQQSGAELMKPGASVTLSCKATGYTLPGYWIEWVKQRPGHGLEWIGEILPGSSSANYNEKFKGKATFTADTSSNTAYMQLSSLTTEDSAIYYCASTYGTSLDYWGQGTTLTVSS | 0.04 OD450 | 0.05 OD450 | binds | binds |
| mab002 scFv-hFc (Fc fusion, human-murine chimeric scFv-hFc, VL-linker-VH-human IgG1 Fc; not shown: linker; Fc fragment of human IgG1) scFv (part 1 of 2): QIVLTQSPAIMSASPGEKVTMTCSARSSVSYMQWYQQKSGTSPKRWIYDTSKLASGVPARFSGSGSGTSYSLTISTMEAEDAATYYCQQWSSDPPTFGGGTKLEIK scFv (part 2 of 2): QIQLVQSGPELKKPGETVKISCKASGYTFTNYGMNWLKQAPGKGLKWMGWINTYTGESTYADDFKGRFAFSLETSASTVYLQINNLKNEDMATYFCARMGDGYYDFTMDYWGQGTSVTVSS | 0.05 OD450 | 0.05 OD450 | binds | binds |
| mab004 scFv-hFc (Fc fusion, human-murine chimeric scFv-hFc, VL-linker-VH-human IgG1 Fc; not shown: linker; Fc fragment of human IgG1) scFv (part 1 of 2): DIVLTQSPASLAVSLGQRATISCRASESVDYDGDSYMNWYQQKPGQPPKLLIYVASNLESGIPARFSGSGSGTDFILNIHPVEEEDAATYYCLQSNEAPYTFGSGTKLEIK scFv (part 2 of 2): QVQLQQPGAELVKPGASVKLSCKASGYTFTSYWINWVKQRPGQGLEWIGNIYPGSSSPNYNEKFKSKATLTVDTSSSTAYMQLSSLTSDDSAVYYCARSLLYAMDYWGQGTSVTVSS | 0.04 OD450 | 0.05 OD450 | binds | binds |

Now from value to binder:

| Emax of OD450 nm binding value [1] | Emax of OD450 nm binding value [2] | binding result [3] | binding result [4] | Binder |
| --- | --- | --- | --- | --- |
| 0.06 OD450 | 0.08 OD450 | binds | binds | mab014 scFv-hFc (Fc fusion, human-murine chimeric scFv-hFc, VL-linker-VH-human IgG1 Fc; not shown: linker; Fc fragment of human IgG1) scFv (part 1 of 2): DIQMTQSSSSFSVSLGDRVTITCKASEDIYNRLAWYQQKPGNTPRLLISGATSLETGVPSRFSGSGSGKDFTLSITSLQTEDVATYYCQQYWSLPWTFGGGTKLEIK scFv (part 2 of 2): EVQLHQSGPELVKPGTSVKISCKASGYTFTDYYMNWVKQSHGKSLEWIGDINPNHGDTGYNQKFTGKATLTVDKSSSTAYMELRSLTSEDSAVYYCARNFFYYGTTYGWYFDVWGTGTTVTVSS |
| 0.08 OD450 | 0.08 OD450 | binds | binds | mab012 scFv-hFc (Fc fusion, human-murine chimeric scFv-hFc, VL-linker-VH-human IgG1 Fc; not shown: linker; Fc fragment of human IgG1) scFv (part 1 of 2): DVLMTQTPLSLPVSLGDQASISCRSSQSIVHSDGNTYLEWYLQKPGQSPKLLIYKVSNRFSGVPDRFSGSGSGTDFTLKISRVEAEDLGFYYCFQGSHVPFTFGSGTKLEIK scFv (part 2 of 2): QVQLQQSGPELVKPGASVKISCKASGYTFTDYYIHWVKQRPGQGLEWIGWTLPGSGSPYYNEKFKGKATLTVDKSSSTAYMLLSSLTSEDSAVYFCARWHYYYGSSYHFDYWGQGTTLTVSS |
| 0.06 OD450 | 0.06 OD450 | binds | binds | mab011 scFv-hFc (Fc fusion, human-murine chimeric scFv-hFc, VL-linker-VH-human IgG1 Fc; not shown: linker; Fc fragment of human IgG1) scFv (part 1 of 2): DIVLTQSPATLSVTPGDSVSLSCRASQSISNNLHWYQQKSHESPRLLIKYASQSISGIPSRFSGSGSGTDFTLSINSVETEDFGMYFCQQSNSWPWTFGGGTKLEIK scFv (part 2 of 2): EVQLQQSGPELVKPGASVKISCKASGYTFTDYYMNWVKQSHGKSLEWIGDISPNYGGTNYNQKFKGKATLTVDKSSSTACMELRSLTSEDSAVYYCTRSFYYYGTGYDWYFDVWGTGTTVTVSS |
| 0.04 OD450 | 0.05 OD450 | binds | binds | mab016 scFv-hFc (Fc fusion, human-murine chimeric scFv-hFc, VL-linker-VH-human IgG1 Fc; not shown: linker; Fc fragment of human IgG1) scFv (part 1 of 2): DIVMTQSQKFMSTTIGDRVSITCKASQNVGTTVAWYQQKPGQSPNLLLYSTSNRFTGVPDRFTGSGSGTDFTLTITNMQSEDLADYFCQQYNNYPLTFGGGTKLEIK scFv (part 2 of 2): EVNLEESGGGLVQPGGSMKLSCVASGFAFSNFWMQWVRQSPEKGLEWVAQIRLKSDNYAAHYAESVKGRFTISRDDSKSSVYLQLNNLRAEDTGTYYCTQGNWVGFAYWGQGTLVTVSA |
